Measured values reported in paper PMC6555819, “Comprehensive study of nuclear receptor DNA binding provides a revised framework for understanding receptor specificity”.
Numbering of substitutions follows the chain as printed.

How the values were obtained:
FXR:RXRa = FXR:RXRa (Homo sapiens, UniProt Q96RI1;P19793 full;full); assay: no ligand; PBM; 270 nM : 90 nM RXRa; PBS pH 7.4, 2% milk, 0.02% Triton X-100, 1 mM DTT, BSA, 0.4 mg/ml salmon testes DNA; conditions: tags: His kept;His cleaved; copies: 1;1; label: surface-attached array probe
Chain of FXR:RXRa (Q96RI1 whole entry, chain 1 of 2): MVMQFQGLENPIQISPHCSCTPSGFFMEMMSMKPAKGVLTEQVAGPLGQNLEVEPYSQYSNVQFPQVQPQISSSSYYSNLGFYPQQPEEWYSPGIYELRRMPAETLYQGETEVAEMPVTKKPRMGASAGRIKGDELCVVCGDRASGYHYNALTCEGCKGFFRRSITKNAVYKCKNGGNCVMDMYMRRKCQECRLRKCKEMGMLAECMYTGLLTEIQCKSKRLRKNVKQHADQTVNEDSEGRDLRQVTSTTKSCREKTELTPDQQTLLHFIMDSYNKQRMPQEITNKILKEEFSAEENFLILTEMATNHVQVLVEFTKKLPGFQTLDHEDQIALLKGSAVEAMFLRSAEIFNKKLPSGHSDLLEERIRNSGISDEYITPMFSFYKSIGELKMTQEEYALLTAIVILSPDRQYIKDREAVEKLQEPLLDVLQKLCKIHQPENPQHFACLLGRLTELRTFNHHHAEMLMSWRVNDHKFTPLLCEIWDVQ
Chain of FXR:RXRa (P19793 whole entry, chain 2 of 2): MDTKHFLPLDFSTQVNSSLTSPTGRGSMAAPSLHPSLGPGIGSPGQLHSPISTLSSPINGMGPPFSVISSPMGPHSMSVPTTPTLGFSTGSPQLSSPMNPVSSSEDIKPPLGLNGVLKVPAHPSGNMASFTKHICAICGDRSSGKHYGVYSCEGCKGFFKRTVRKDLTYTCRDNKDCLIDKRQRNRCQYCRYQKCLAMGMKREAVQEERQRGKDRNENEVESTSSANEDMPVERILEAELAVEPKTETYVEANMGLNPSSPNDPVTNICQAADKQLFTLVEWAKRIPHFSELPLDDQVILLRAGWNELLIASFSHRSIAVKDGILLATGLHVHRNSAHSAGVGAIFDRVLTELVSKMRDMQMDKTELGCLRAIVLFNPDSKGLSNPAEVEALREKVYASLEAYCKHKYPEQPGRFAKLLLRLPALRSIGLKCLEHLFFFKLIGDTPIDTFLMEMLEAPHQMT
In short: (§1)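 The probes on custom Agilent 4×180K protein-binding microarrays were double-stranded, with 34-nt variable regions bearing direct-repeat seeds, single-nucleotide variants, half-site ablations and random human genomic background sequences. Incubation lasted 1 h with ligand-free nuclear receptor dimers in PBS pH 7.4, 2% milk, 0.02% Triton X-100, 1 mM DTT, 0.2 mg/mL BSA and 0.4 mg/ml salmon testes DNA. Antibodies against each partner (one per run) detected bound dimers, and fluorescence scans were regression-normalized. Binding z-scores take the random background probes as reference.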

LXRa:RXRa = LXRa:RXRa (Homo sapiens, UniProt Q13133;P19793 full;full); assay: as above; conditions: tags: His kept;His cleaved; copies: 1;1; label: surface-attached array probe
Chain of LXRa:RXRa (Q13133 whole entry, chain 1 of 2): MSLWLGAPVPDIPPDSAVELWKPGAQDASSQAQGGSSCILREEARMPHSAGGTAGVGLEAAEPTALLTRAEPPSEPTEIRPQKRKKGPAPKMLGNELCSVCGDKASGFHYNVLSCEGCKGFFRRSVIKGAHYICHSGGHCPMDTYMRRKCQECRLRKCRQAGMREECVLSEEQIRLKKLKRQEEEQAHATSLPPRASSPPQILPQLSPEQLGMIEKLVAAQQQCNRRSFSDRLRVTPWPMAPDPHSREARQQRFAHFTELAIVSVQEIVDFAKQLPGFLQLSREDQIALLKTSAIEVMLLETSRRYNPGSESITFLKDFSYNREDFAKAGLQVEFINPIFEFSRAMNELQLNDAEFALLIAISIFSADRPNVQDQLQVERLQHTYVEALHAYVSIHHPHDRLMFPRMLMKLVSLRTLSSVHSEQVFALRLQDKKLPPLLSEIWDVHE
Chain of LXRa:RXRa (P19793 whole entry, chain 2 of 2): as the sequence (P19793 whole entry, chain 2 of 2) above
In short: as §1

PPARa:RXRa = PPARa:RXRa (Homo sapiens, UniProt Q07869;P19793 full;full); assay: as above; conditions: tags: GST kept;His cleaved; copies: 1;1; label: surface-attached array probe
In short: as §1

THRa:RXRa = THRa:RXRa (Homo sapiens, UniProt P10827;P19793 full;full); assay: no ligand; PBM; 90 nM : 90 nM RXRa; PBS pH 7.4, 2% milk, 0.02% Triton X-100, 1 mM DTT, BSA, 0.4 mg/ml salmon testes DNA; conditions: tags: His kept;His cleaved; copies: 1;1; label: surface-attached array probe
Chain of THRa:RXRa (P10827 other isoform, or with tags, fused parts or gaps, chain 1 of 2): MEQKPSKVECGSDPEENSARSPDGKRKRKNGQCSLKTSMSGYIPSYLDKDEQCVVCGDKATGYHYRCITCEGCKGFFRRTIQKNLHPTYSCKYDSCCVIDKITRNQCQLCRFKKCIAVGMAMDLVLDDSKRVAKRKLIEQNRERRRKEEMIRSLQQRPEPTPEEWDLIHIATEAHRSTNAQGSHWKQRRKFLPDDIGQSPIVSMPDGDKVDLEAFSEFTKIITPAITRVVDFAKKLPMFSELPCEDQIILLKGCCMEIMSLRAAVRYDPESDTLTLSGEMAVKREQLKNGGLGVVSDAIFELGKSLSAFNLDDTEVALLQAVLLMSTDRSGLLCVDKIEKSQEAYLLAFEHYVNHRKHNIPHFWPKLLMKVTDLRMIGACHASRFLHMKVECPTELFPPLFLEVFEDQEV
Chain of THRa:RXRa (P19793 whole entry, chain 2 of 2): as the sequence (P19793 whole entry, chain 2 of 2) above
LXRb:RXRa = LXRb:RXRa (Homo sapiens, UniProt P55055;P19793 full;full); assay: no ligand; PBM; 270 nM : 90 nM RXRa; PBS pH 7.4, 2% milk, 0.02% Triton X-100, 1 mM DTT, BSA, 0.4 mg/ml salmon testes DNA; conditions: tags: His kept;His cleaved; copies: 1;1; label: surface-attached array probe
Chain of LXRb:RXRa (P55055 whole entry, chain 1 of 2): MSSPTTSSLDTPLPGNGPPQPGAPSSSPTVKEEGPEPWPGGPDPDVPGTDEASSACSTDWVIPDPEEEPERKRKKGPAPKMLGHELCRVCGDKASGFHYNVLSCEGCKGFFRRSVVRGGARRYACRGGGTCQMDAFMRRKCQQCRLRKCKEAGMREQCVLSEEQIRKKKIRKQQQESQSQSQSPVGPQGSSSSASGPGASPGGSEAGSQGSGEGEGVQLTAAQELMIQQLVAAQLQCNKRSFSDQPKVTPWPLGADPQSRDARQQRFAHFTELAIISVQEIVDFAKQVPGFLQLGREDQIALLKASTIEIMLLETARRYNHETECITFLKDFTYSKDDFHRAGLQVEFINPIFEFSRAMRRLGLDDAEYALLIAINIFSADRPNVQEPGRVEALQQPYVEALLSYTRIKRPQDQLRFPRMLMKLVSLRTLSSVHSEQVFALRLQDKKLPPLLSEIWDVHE
Chain of LXRb:RXRa (P19793 whole entry, chain 2 of 2): as the sequence (P19793 whole entry, chain 2 of 2) above
In short: as §1

VDR:RXRa = VDR:RXRa (Homo sapiens, UniProt P11473;P19793 full;full); assay: as above; conditions: tags: His kept;His cleaved; copies: 1;1; label: surface-attached array probe
In short: as §1

PXR:RXRa = PXR:RXRa (Homo sapiens, UniProt O75469;P19793 full;full); assay: as above; conditions: tags: His kept;His cleaved; copies: 1;1; label: surface-attached array probe
Chain of PXR:RXRa (O75469 whole entry, chain 1 of 2): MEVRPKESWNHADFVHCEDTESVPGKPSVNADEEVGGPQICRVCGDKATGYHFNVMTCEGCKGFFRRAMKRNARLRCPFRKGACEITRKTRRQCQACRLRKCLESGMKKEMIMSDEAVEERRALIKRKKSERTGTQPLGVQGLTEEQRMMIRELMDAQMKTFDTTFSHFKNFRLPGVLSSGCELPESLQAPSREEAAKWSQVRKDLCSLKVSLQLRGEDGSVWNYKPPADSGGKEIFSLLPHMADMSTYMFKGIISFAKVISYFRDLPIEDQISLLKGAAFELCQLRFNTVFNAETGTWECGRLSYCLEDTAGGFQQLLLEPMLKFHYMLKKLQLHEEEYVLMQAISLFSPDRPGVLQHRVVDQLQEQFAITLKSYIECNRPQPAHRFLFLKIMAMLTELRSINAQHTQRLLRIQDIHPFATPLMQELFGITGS
Chain of PXR:RXRa (P19793 whole entry, chain 2 of 2): as the sequence (P19793 whole entry, chain 2 of 2) above
In short: as §1

RARg:RXRa = RARg:RXRa (Homo sapiens, UniProt P13631;P19793 full;full); assay: as above; conditions: tags: His kept;His cleaved; copies: 1;1; label: surface-attached array probe
In short: as §1

RARb:RXRa = RARb:RXRa (Homo sapiens, UniProt P10826;P19793 full;full); assay: as above; conditions: tags: His kept;His cleaved; copies: 1;1; label: surface-attached array probe
In short: as §1

B1: NRC3_random_hg19_176_o1 (dsDNA)
DNA 1: GCCTGCCTGTGTTGGGACTTTGACTCCACATTTCCCGCGATTGACAGCGTAGAATGAAGG
DNA 2: CCTTCATTCTACGCTGTCAATCGCGGGAAATGTGGAGTCAAAGTCCCAACACAGGCAGGC
binding signal (FXR:RXRa): -0.18 PBM z-score against 500 random probes | binding signal (LXRa:RXRa): -0.07 PBM z-score against 500 random probes | binding signal (PPARa:RXRa): 0 PBM z-score against 500 random probes | binding signal (THRa:RXRa): -0.11 PBM z-score against 500 random probes

B2: NRC3_random_hg19_412_o1 (dsDNA)
DNA 1: GCACAACAGATGCTGGAGAGGATATGGAGATCCTTTGCGATTGACAGCGTAGAATGAAGG
DNA 2: CCTTCATTCTACGCTGTCAATCGCAAAGGATCTCCATATCCTCTCCAGCATCTGTTGTGC
binding signal (LXRb:RXRa): -0.93 PBM z-score against 500 random probes | binding signal (FXR:RXRa): -0.81 PBM z-score against 500 random probes | binding signal (LXRa:RXRa): -0.73 PBM z-score against 500 random probes | binding signal (THRa:RXRa): -0.82 PBM z-score against 500 random probes

B3: NRC3_wobSeed98_DR4_T9A_o1 (dsDNA)
DNA 1: GCACTAGTAGGTCAGCTGAGGTCACACACAATTCGGGCGATTGACAGCGTAGAATGAAGG
DNA 2: CCTTCATTCTACGCTGTCAATCGCCCGAATTGTGTGTGACCTCAGCTGACCTACTAGTGC
binding signal (VDR:RXRa): 6.98 PBM z-score against 500 random probes | binding signal (PXR:RXRa): 7.12 PBM z-score against 500 random probes | binding signal (THRa:RXRa): 5.78 PBM z-score against 500 random probes

B4: NRC3_wobSeed98_DR4_T9G_o1 (dsDNA)
DNA 1: B3 DNA 1 with A9G
DNA 2: B3 DNA 2 with T52C
binding signal (VDR:RXRa): 6.63 PBM z-score against 500 random probes | binding signal (PXR:RXRa): 6.95 PBM z-score against 500 random probes | binding signal (THRa:RXRa): 5.78 PBM z-score against 500 random probes

B5: NRC3_wobSeed118_DR4_G13C_o1 (dsDNA)
DNA 1: GCTTACCAAGGTCAGCTGAGGTCGTTGATCCAACTCGCGATTGACAGCGTAGAATGAAGG
DNA 2: CCTTCATTCTACGCTGTCAATCGCGAGTTGGATCAACGACCTCAGCTGACCTTGGTAAGC
binding signal (VDR:RXRa): 6.65 PBM z-score against 500 random probes | binding signal (PXR:RXRa): 6.89 PBM z-score against 500 random probes | binding signal (THRa:RXRa): 5.55 PBM z-score against 500 random probes

B6: NRC3_wobSeed97_DR4_A18G_o1 (dsDNA)
DNA 1: GCCAAACTAGGTCACGAGAGGTCAAAGTCGAATGACGCGATTGACAGCGTAGAATGAAGG
DNA 2: CCTTCATTCTACGCTGTCAATCGCGTCATTCGACTTTGACCTCTCGTGACCTAGTTTGGC
binding signal (VDR:RXRa): 7.3 PBM z-score against 500 random probes | binding signal (FXR:RXRa): 7.96 PBM z-score against 500 random probes | binding signal (PXR:RXRa): 7.59 PBM z-score against 500 random probes | binding signal (THRa:RXRa): 5.49 PBM z-score against 500 random probes

B7: NRC3_wobSeed113_DR4_G15C_o1 (dsDNA)
DNA 1: GCATATGTAGGTTACCTGGGGTCATTCAGACTAGGCGCGATTGACAGCGTAGAATGAAGG
DNA 2: CCTTCATTCTACGCTGTCAATCGCGCCTAGTCTGAATGACCCCAGGTAACCTACATATGC
binding signal (LXRb:RXRa): 8.08 PBM z-score against 500 random probes | binding signal (LXRa:RXRa): 8.75 PBM z-score against 500 random probes | binding signal (THRa:RXRa): 5.46 PBM z-score against 500 random probes

B8: NRC3_wobSeed101_DR4_T23C_o1 (dsDNA)
DNA 1: GCCCTTACGGGTCACTCCAGGTCATAGCATCGGAGTGCGATTGACAGCGTAGAATGAAGG
DNA 2: CCTTCATTCTACGCTGTCAATCGCACTCCGATGCTATGACCTGGAGTGACCCGTAAGGGC
binding signal (LXRb:RXRa): 7.16 PBM z-score against 500 random probes | binding signal (LXRa:RXRa): 8.42 PBM z-score against 500 random probes | binding signal (THRa:RXRa): 5.34 PBM z-score against 500 random probes

B9: NRC3_wobSeed116_DR4_A21G_o1 (dsDNA)
DNA 1: GCAGAATGAGGTTACCAAAGGTCAGGGAAACGCTTGGCGATTGACAGCGTAGAATGAAGG
DNA 2: CCTTCATTCTACGCTGTCAATCGCCAAGCGTTTCCCTGACCTTTGGTAACCTCATTCTGC
binding signal (LXRb:RXRa): 8.32 PBM z-score against 500 random probes | binding signal (LXRa:RXRa): 9.08 PBM z-score against 500 random probes | binding signal (THRa:RXRa): 5.21 PBM z-score against 500 random probes

B10: NRC3_wobSeed142_DR5_G13C_o1 (dsDNA)
DNA 1: GCATACCAAGGTCATCGTGAGGTCGTTGATACTAACGCGATTGACAGCGTAGAATGAAGG
DNA 2: CCTTCATTCTACGCTGTCAATCGCGTTAGTATCAACGACCTCACGATGACCTTGGTATGC
binding signal (VDR:RXRa): 7.1 PBM z-score against 500 random probes | binding signal (RARg:RXRa): 7.52 PBM z-score against 500 random probes | binding signal (PXR:RXRa): 6.51 PBM z-score against 500 random probes | binding signal (THRa:RXRa): 5.13 PBM z-score against 500 random probes

B11: NRC3_wobSeed85_DR3_G15C_o1 (dsDNA)
DNA 1: GCCGTCCAAGGTCACAGAGGTCAGTGAATGCCGAGTGCGATTGACAGCGTAGAATGAAGG
DNA 2: CCTTCATTCTACGCTGTCAATCGCACTCGGCATTCACTGACCTCTGTGACCTTGGACGGC
binding signal (LXRb:RXRa): 5.81 PBM z-score against 500 random probes | binding signal (FXR:RXRa): 7.83 PBM z-score against 500 random probes | binding signal (RARb:RXRa): 5.99 PBM z-score against 500 random probes | binding signal (RARg:RXRa): 7.46 PBM z-score against 500 random probes | binding signal (PPARa:RXRa): 6.53 PBM z-score against 500 random probes | binding signal (PXR:RXRa): 6.95 PBM z-score against 500 random probes | binding signal (THRa:RXRa): 4.91 PBM z-score against 500 random probes

B12: NRC3_wobSeed49_DR2_T8C_o1 (dsDNA)
DNA 1: GCCAAACCAGGTCAAGAGGTCAAAGTCCGCTTCCCGGCGATTGACAGCGTAGAATGAAGG
DNA 2: CCTTCATTCTACGCTGTCAATCGCCGGGAAGCGGACTTTGACCTCTTGACCTGGTTTGGC
binding signal (FXR:RXRa): 7.9 PBM z-score against 500 random probes | binding signal (PXR:RXRa): 6.81 PBM z-score against 500 random probes | binding signal (THRa:RXRa): 4.82 PBM z-score against 500 random probes

B13: NRC3_wobSeed85_DR3_G24T_o1 (dsDNA)
DNA 1: B11 DNA 1 with C15G, G24T
DNA 2: B11 DNA 2 with C37A, G46C
binding signal (VDR:RXRa): 8.16 PBM z-score against 500 random probes | binding signal (RARb:RXRa): 5.65 PBM z-score against 500 random probes | binding signal (PXR:RXRa): 7.16 PBM z-score against 500 random probes | binding signal (THRa:RXRa): 4.8 PBM z-score against 500 random probes

B14: NRC3_wobSeed87_DR3_T8G_o1 (dsDNA)
DNA 1: GCCGAACGAGGTCATCCAGGACAGTGAATACATTGAGCGATTGACAGCGTAGAATGAAGG
DNA 2: CCTTCATTCTACGCTGTCAATCGCTCAATGTATTCACTGTCCTGGATGACCTCGTTCGGC
binding signal (VDR:RXRa): 6.85 PBM z-score against 500 random probes | binding signal (FXR:RXRa): 8.44 PBM z-score against 500 random probes | binding signal (PXR:RXRa): 6.36 PBM z-score against 500 random probes | binding signal (THRa:RXRa): 4.78 PBM z-score against 500 random probes

B15: NRC3_random_hg19_439_o1 (dsDNA)
DNA 1: GCTATGGTTTGGCTGTGTCTCCATTCAAATCTCAACGCGATTGACAGCGTAGAATGAAGG
DNA 2: CCTTCATTCTACGCTGTCAATCGCGTTGAGATTTGAATGGAGACACAGCCAAACCATAGC
binding signal (PXR:RXRa): 0.5 PBM z-score against 500 random probes | binding signal (THRa:RXRa): 0.36 PBM z-score against 500 random probes

B16: NRC3_random_hg19_217_o1 (dsDNA)
DNA 1: GCCTCAAACTCCCTTCTTCAGTTTCTGGTAGATCAAGCGATTGACAGCGTAGAATGAAGG
DNA 2: CCTTCATTCTACGCTGTCAATCGCTTGATCTACCAGAAACTGAAGAAGGGAGTTTGAGGC
binding signal (RARb:RXRa): -0.02 PBM z-score against 500 random probes | binding signal (LXRa:RXRa): 0.47 PBM z-score against 500 random probes | binding signal (THRa:RXRa): -0.02 PBM z-score against 500 random probes

B17: NRC3_random_hg19_394_o1 (dsDNA)
DNA 1: GCGAGATCGAGACCATCTTGGCTAACACGGTGAAACGCGATTGACAGCGTAGAATGAAGG
DNA 2: CCTTCATTCTACGCTGTCAATCGCGTTTCACCGTGTTAGCCAAGATGGTCTCGATCTCGC
binding signal (PXR:RXRa): -0.39 PBM z-score against 500 random probes | binding signal (THRa:RXRa): -0.09 PBM z-score against 500 random probes

B18: NRC3_random_hg19_90_o1 (dsDNA)
DNA 1: GCTGAGTATTGTAGATTCATTGTTGAGATTCTAGATGCGATTGACAGCGTAGAATGAAGG
DNA 2: CCTTCATTCTACGCTGTCAATCGCATCTAGAATCTCAACAATGAATCTACAATACTCAGC
binding signal (PXR:RXRa): -0.1 PBM z-score against 500 random probes | binding signal (THRa:RXRa): -0.22 PBM z-score against 500 random probes

B19: NRC3_random_hg19_185_o1 (dsDNA)
DNA 1: GCTAGTGAGTGAGTTCTCACAAGAAATGGTTGTTTAGCGATTGACAGCGTAGAATGAAGG
DNA 2: CCTTCATTCTACGCTGTCAATCGCTAAACAACCATTTCTTGTGAGAACTCACTCACTAGC
binding signal (PXR:RXRa): -0.01 PBM z-score against 500 random probes | binding signal (THRa:RXRa): -0.23 PBM z-score against 500 random probes

B20: NRC3_random_hg19_109_o1 (dsDNA)
DNA 1: GCTGGTGTTTCATCACTGTGGCAACTTCCCACCTGGGCGATTGACAGCGTAGAATGAAGG
DNA 2: CCTTCATTCTACGCTGTCAATCGCCCAGGTGGGAAGTTGCCACAGTGATGAAACACCAGC
binding signal (PXR:RXRa): -0.28 PBM z-score against 500 random probes | binding signal (THRa:RXRa): -0.41 PBM z-score against 500 random probes
